For experiment [1], the target named is Tyrosine phosphatase Sts1 (UniProt Q8BGG7). As to the kind of experiment: co-immunoprecipitation (anti-Bcr-Abl/Abl IP, Sts1 immunoblot, quantified). The note with it: BaF3 cells stably transduced with the Bcr-Abl variants; parent: est. 1.0; read off a plot. A general note: Immunoblotting shows a protein as a band on a membrane.
In experiment [2] the target is Bcr-Abl DH domain (residues 487–702) (UniProt P11274). The experiment in a line: NMR titration; GTPase titrated to 50 μM 15N-labeled DH domain; 50 mM HEPES pH 7, 50 mM NaCl, 1 mM DTT, 1 mM imidazole, 2 mM EDTA; [15N,1H]-TROSY; about 10 peaks fitted to a 1:1 binding model, mean Kd.
Sequence of Bcr-Abl DH domain (residues 487–702) (P11274 487-702): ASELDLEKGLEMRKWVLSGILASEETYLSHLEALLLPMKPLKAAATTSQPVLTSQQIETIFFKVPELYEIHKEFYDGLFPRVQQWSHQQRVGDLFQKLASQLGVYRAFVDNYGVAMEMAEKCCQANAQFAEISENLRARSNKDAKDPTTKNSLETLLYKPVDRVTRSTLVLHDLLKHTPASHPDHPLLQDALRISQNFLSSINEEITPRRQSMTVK

Sequence of Tyrosine phosphatase Sts1 (Q8BGG7 whole entry, the tested form may be a part): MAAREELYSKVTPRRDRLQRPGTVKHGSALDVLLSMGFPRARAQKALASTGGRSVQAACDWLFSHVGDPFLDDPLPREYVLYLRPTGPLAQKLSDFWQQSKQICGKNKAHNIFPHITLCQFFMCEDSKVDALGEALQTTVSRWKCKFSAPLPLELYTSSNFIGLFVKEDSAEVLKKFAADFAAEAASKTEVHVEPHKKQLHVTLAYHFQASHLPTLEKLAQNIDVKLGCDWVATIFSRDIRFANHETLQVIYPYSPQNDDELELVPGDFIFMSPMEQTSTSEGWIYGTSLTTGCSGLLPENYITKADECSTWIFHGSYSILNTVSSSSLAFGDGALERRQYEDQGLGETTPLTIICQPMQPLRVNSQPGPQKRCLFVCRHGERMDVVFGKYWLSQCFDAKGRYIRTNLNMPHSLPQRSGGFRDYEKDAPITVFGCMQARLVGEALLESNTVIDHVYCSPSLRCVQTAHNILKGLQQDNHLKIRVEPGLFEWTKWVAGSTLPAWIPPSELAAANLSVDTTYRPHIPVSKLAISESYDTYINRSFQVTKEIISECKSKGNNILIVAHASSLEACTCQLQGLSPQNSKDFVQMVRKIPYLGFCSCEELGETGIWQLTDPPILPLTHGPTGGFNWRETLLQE
Sequence of Bcr-Abl p210 (from UniProt P11274) F1100E (P11274 whole entry, stated change not applied): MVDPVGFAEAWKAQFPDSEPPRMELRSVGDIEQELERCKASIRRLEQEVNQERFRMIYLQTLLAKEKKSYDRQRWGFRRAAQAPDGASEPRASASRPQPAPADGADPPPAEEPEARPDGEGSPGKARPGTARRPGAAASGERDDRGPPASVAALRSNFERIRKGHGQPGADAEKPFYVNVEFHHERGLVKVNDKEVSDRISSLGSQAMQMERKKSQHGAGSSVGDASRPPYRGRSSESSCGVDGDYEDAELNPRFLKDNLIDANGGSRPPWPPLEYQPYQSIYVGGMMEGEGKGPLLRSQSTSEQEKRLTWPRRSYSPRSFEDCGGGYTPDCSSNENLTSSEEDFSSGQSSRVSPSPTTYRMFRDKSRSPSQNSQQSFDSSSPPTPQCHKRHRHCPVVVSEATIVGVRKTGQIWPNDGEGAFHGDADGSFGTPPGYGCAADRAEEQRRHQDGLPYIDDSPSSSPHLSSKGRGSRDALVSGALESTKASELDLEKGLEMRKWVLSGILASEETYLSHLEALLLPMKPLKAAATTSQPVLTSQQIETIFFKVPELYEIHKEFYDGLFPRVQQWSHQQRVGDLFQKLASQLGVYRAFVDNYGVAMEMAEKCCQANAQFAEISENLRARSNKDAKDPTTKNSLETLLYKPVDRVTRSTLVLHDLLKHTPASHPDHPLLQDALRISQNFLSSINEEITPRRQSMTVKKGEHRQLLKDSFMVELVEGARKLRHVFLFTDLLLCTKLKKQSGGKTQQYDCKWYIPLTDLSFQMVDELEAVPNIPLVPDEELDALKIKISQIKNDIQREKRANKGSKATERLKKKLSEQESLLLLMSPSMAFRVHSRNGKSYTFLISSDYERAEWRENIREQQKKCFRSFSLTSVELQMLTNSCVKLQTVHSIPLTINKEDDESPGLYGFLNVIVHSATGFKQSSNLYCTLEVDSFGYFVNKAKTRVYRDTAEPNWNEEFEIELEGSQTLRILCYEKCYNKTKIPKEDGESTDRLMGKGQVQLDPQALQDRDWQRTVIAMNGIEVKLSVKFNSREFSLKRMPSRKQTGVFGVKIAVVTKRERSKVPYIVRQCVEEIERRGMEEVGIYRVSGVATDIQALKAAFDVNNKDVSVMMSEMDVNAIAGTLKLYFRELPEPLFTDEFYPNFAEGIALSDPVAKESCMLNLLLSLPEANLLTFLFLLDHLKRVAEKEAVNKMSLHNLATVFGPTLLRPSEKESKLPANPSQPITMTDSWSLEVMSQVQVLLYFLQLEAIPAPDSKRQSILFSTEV
Sequence of Bcr-Abl p210 (from UniProt P11274) R726A; F1100E (P11274 whole entry, stated change not applied): as above
Sequence of Bcr-Abl p210 (from UniProt P11274) R723A; K724A; F1100E (P11274 whole entry, stated change not applied): as above

With “Bcr-Abl p210 (from UniProt P11274) R723A; K724A; F1100E”, the ratio to parent in experiment [1] stood at 0.24. Consider “Cdc42 (from UniProt P60953 1-191) (enzyme)”, for which the Kd (commonly a measure of binding affinity in units of concentration) in experiment [2] is 1.9 mM. This lies in the millimolar range.

Consider “Bcr-Abl p210 (from UniProt P11274) F1100E”, for which, in experiment [1], the ratio to parent worked out at 0.55. The same measure, in the same setting: as for “Bcr-Abl p210 (from UniProt P11274) R726A; F1100E”, the figure is 0.5. As for “RhoA (from UniProt P61586 1-193) (enzyme)”, the equilibrium dissociation constant (Kd) in experiment [2] amounted to 0.6 mM.

(Values after PMC5727386.)
